Tested on: Escherichia coli TOP10
Assay: shrunken log2 fold change of peptide-encoding DNA abundance (4.5 h post-induction vs induction); higher = less antimicrobial activity (less host growth inhibition)
Conditions: time post-induction: 4.5 h; library: site-saturation at positions 5, 18, 19, 20
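Further: peptides expressed intracellularly from a pBAD plasmid library in pooled LB shake-flask culture, induced with 0.3% L-arabinose, DNA abundance read by NGS, three biological replicates, DESeq2 with apeglm shrinkage.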

Sequence	shrunken log2 fold change
RRIRSRPPRLPRPRPRPQTNPRP	-0.032
RRIRGRPPRLPRPRPRPIVSPRP	0.158
RRIRCRPPRLPRPRPRPKGGPRP	0.094
RRIRVRPPRLPRPRPRPRRRPRP	0.271
RRIRERPPRLPRPRPRPFLEPRP	-0.436
RRIRKRPPRLPRPRPRPNWCPRP	-0.0436
RRIRWRPPRLPRPRPRPMHCPRP	-0.0635
RRIRQRPPRLPRPRPRPHNVPRP	-0.0684
RRIRIRPPRLPRPRPRPHCAPRP	-0.0649
RRIRYRPPRLPRPRPRPCRWPRP	-0.267
RRIRHRPPRLPRPRPRPSMRPRP	0.204
RRIRARPPRLPRPRPRPGREPRP	0.388
RRIRMRPPRLPRPRPRPQYVPRP	-0.0961
RRIRHRPPRLPRPRPRPTAQPRP	-0.054
RRIRYRPPRLPRPRPRPPKWPRP	0.223
RRIRIRPPRLPRPRPRPIPVPRP	-0.0943
RRIRHRPPRLPRPRPRPTVMPRP	-0.0285
RRIRERPPRLPRPRPRPKERPRP	0.547
RRIRDRPPRLPRPRPRPNRIPRP	-0.152
RRIRNRPPRLPRPRPRPNFKPRP	-0.0826
RRIRMRPPRLPRPRPRPAHRPRP	0.444
RRIRIRPPRLPRPRPRPLYRPRP	-0.384
RRIRKRPPRLPRPRPRPRLCPRP	0.308
RRIRARPPRLPRPRPRPCVCPRP	0.301
RRIRTRPPRLPRPRPRPDEVPRP	-0.0587

Sequence	shrunken log2 fold change
RRIRKRPPRLPRPRPRPVLSPRP	0.3
RRIRYRPPRLPRPRPRPDKYPRP	0.0363
RRIRTRPPRLPRPRPRPVQHPRP	-0.217
RRIRGRPPRLPRPRPRPEDFPRP	0.149
RRIRDRPPRLPRPRPRPFHPPRP	-0.106
RRIRCRPPRLPRPRPRPQKVPRP	-0.127
RRIRFRPPRLPRPRPRPLPGPRP	0.403
RRIRKRPPRLPRPRPRPEQDPRP	0.0646
RRIRWRPPRLPRPRPRPMNWPRP	0.0484
RRIRIRPPRLPRPRPRPTMTPRP	-0.0629
RRIRERPPRLPRPRPRPAFIPRP	-0.012
RRIRPRPPRLPRPRPRPSRLPRP	-0.0839
RRIRCRPPRLPRPRPRPLEVPRP	-0.174
RRIRGRPPRLPRPRPRPSWFPRP	0.373
RRIRWRPPRLPRPRPRPEMDPRP	0.7
RRIRERPPRLPRPRPRPVMCPRP	0.0654
RRIRTRPPRLPRPRPRPSAGPRP	-0.0241
RRIRFRPPRLPRPRPRPCCWPRP	0.148
RRIRLRPPRLPRPRPRPFDCPRP	0.00355
RRIRPRPPRLPRPRPRPKIFPRP	-0.0976
RRIRLRPPRLPRPRPRPARAPRP	0.268
RRIRSRPPRLPRPRPRPPLDPRP	0.289
RRIRRRPPRLPRPRPRPNMRPRP	0.104
RRIRRRPPRLPRPRPRPVMGPRP	0.0569
RRIRRRPPRLPRPRPRPCVYPRP	-0.42

Sequence	shrunken log2 fold change
RRIRIRPPRLPRPRPRPKFMPRP	-0.321
RRIRFRPPRLPRPRPRPAKIPRP	0.117
RRIRKRPPRLPRPRPRPCRQPRP	-0.166
RRIRCRPPRLPRPRPRPQSNPRP	-0.822
RRIRARPPRLPRPRPRPLCEPRP	0.879
RRIRRRPPRLPRPRPRPIHMPRP	-0.206
RRIRARPPRLPRPRPRPNLAPRP	-0.179
RRIRVRPPRLPRPRPRPDYQPRP	0.0174
RRIRMRPPRLPRPRPRPWMIPRP	-0.136
RRIRMRPPRLPRPRPRPPTAPRP	1.03
RRIRVRPPRLPRPRPRPSFIPRP	-0.749
RRIRGRPPRLPRPRPRPKITPRP	0.413
RRIRMRPPRLPRPRPRPYITPRP	-0.393
RRIRRRPPRLPRPRPRPYSSPRP	-0.0612
RRIRPRPPRLPRPRPRPAAQPRP	0.721
RRIRHRPPRLPRPRPRPTQKPRP	-0.00748
RRIRYRPPRLPRPRPRPETWPRP	0.093
RRIRKRPPRLPRPRPRPCKAPRP	0.0525
RRIRTRPPRLPRPRPRPNITPRP	-0.664
RRIRLRPPRLPRPRPRPACDPRP	0.15
RRIRFRPPRLPRPRPRPSSPPRP	-0.284
RRIRIRPPRLPRPRPRPSRDPRP	-0.0607
RRIRRRPPRLPRPRPRPPRLPRP	1.1
RRIRWRPPRLPRPRPRPRCWPRP	0.616
RRIRCRPPRLPRPRPRPHEMPRP	-0.0763

Sequence	shrunken log2 fold change
RRIRCRPPRLPRPRPRPYGFPRP	-0.515
RRIRKRPPRLPRPRPRPKHTPRP	0.281
RRIRERPPRLPRPRPRPVVKPRP	-0.413
RRIRFRPPRLPRPRPRPGPIPRP	0.218
RRIRWRPPRLPRPRPRPKPSPRP	0.512
RRIRQRPPRLPRPRPRPCEPPRP	-0.0332
RRIRIRPPRLPRPRPRPQLRPRP	-0.203
RRIRWRPPRLPRPRPRPGNGPRP	-0.0519
RRIRGRPPRLPRPRPRPFYYPRP	0.07
RRIRMRPPRLPRPRPRPMPGPRP	0.0377
RRIRVRPPRLPRPRPRPMLDPRP	-0.215
RRIRHRPPRLPRPRPRPHTFPRP	-0.386
RRIRYRPPRLPRPRPRPDKKPRP	-0.0333
RRIRNRPPRLPRPRPRPWVLPRP	0.0737
RRIRQRPPRLPRPRPRPKTCPRP	-0.0119
RRIRSRPPRLPRPRPRPVNMPRP	-0.103
RRIRKRPPRLPRPRPRPERWPRP	1.15
RRIRLRPPRLPRPRPRPFCYPRP	-0.465
RRIRARPPRLPRPRPRPAFRPRP	0.355
RRIRPRPPRLPRPRPRPCVYPRP	-0.22
RRIRKRPPRLPRPRPRPGPTPRP	0.65
RRIRCRPPRLPRPRPRPFGFPRP	-0.388
RRIRNRPPRLPRPRPRPQKIPRP	-0.22
RRIRFRPPRLPRPRPRPIEEPRP	0.0565
RRIRTRPPRLPRPRPRPMFHPRP	-0.52

Sequence	shrunken log2 fold change
RRIRERPPRLPRPRPRPYELPRP	-0.563
RRIRVRPPRLPRPRPRPHGFPRP	-0.017
RRIRTRPPRLPRPRPRPNAQPRP	0.5
RRIRIRPPRLPRPRPRPNLLPRP	-0.309
RRIRLRPPRLPRPRPRPWMSPRP	-0.55
RRIRMRPPRLPRPRPRPYSRPRP	-0.253
RRIRTRPPRLPRPRPRPQTDPRP	-0.466
RRIRLRPPRLPRPRPRPFMTPRP	-0.824
RRIRQRPPRLPRPRPRPQYDPRP	-0.081
RRIRHRPPRLPRPRPRPDTGPRP	-0.014
RRIRDRPPRLPRPRPRPNCNPRP	1.33
RRIRNRPPRLPRPRPRPATSPRP	-0.214
RRIRDRPPRLPRPRPRPFMQPRP	0.0183
RRIRNRPPRLPRPRPRPACYPRP	-0.265
RRIRFRPPRLPRPRPRPKCWPRP	0.267
RRIRARPPRLPRPRPRPTQCPRP	0.391
RRIRGRPPRLPRPRPRPRMHPRP	0.997
RRIRPRPPRLPRPRPRPFRKPRP	-0.0819
RRIRLRPPRLPRPRPRPKSAPRP	0.139
RRIRARPPRLPRPRPRPGRQPRP	0.706
RRIRPRPPRLPRPRPRPQVWPRP	0.202
RRIRVRPPRLPRPRPRPMGYPRP	-0.0568
RRIRRRPPRLPRPRPRPFARPRP	0.217
RRIRARPPRLPRPRPRPKLCPRP	0.225
RRIRSRPPRLPRPRPRPHIAPRP	-0.255

Sequence	shrunken log2 fold change
RRIRDRPPRLPRPRPRPLDQPRP	0.0626
RRIRWRPPRLPRPRPRPGPFPRP	0.125
RRIRLRPPRLPRPRPRPTPCPRP	0.152
RRIRYRPPRLPRPRPRPQSFPRP	-0.0418
RRIRGRPPRLPRPRPRPFCWPRP	0.551
RRIRVRPPRLPRPRPRPLDKPRP	0.0163
RRIRQRPPRLPRPRPRPYGWPRP	-0.112
RRIRYRPPRLPRPRPRPYVMPRP	-1.04
RRIRYRPPRLPRPRPRPWRMPRP	-0.369
RRIRLRPPRLPRPRPRPYWVPRP	0.135
RRIRSRPPRLPRPRPRPNETPRP	-0.198
RRIRGRPPRLPRPRPRPMHEPRP	0.928
RRIRWRPPRLPRPRPRPDGYPRP	-0.0244
RRIRYRPPRLPRPRPRPTGYPRP	-1.16
RRIRRRPPRLPRPRPRPKAEPRP	0.0655
RRIRQRPPRLPRPRPRPSHDPRP	-0.104
RRIRKRPPRLPRPRPRPKWGPRP	0.594
RRIRKRPPRLPRPRPRPFKMPRP	-0.231
RRIRWRPPRLPRPRPRPHMAPRP	0.00551
RRIRHRPPRLPRPRPRPYIAPRP	-0.496
RRIRLRPPRLPRPRPRPAADPRP	0.832
RRIRDRPPRLPRPRPRPCFDPRP	0.581
RRIRKRPPRLPRPRPRPDTYPRP	-0.0205
RRIRQRPPRLPRPRPRPQNCPRP	0.0179
RRIRVRPPRLPRPRPRPQFWPRP	-0.178
